Columns and labels:
[1] = target: biotinylated human plasma Kallikrein (Homo sapiens, UniProt P03952); test: Phage binding assay of individual clones, randomisation of peptide domains; details: WPAR domain fixed, positions 1, 6, 7, 8, 9 & 10 randomised; top 50
From the text: Library construction: Small phage libraries were generated according to the methods of Heinis et al as described in ‘Cloning of phage libraries’ above. The sficx3ba primer was modified such that the bicycle-encoding portion was based on a parent 5×5 bicycle (5×5: two 5-residue loops) DNA sequence with only 4-6 codons randomized to NNS. The randomized codons were those encoding the peptide domain/motif of interest.
Assay of binding of individual clones: Library transformant colonies, or selection output colonies, were picked and grown as individual cultures in 2TY broth containing selective antibiotic. The picked colonies were DNA-sequenced using a QIAgen PyroMark Q96 DNA sequencer to reveal the amino-acid substitution present in each clone, and were assayed for human plasma Kallikrein binding as follows. The phage-containing supernatant was harvested from the culture and phage were cyclised with tris bromomethyl benzene(TBMB) based on the methods of Heinis et al (Nature Chemical Biology vol. 5 pp 502-507 (2009)). The purified phage from this process were assayed for binding to biotinylated human plasma Kallikrein using a homogeneous plate-based binding assay; assay read-out measured on a BMG Labtech Pherastar FS plate reader. The quantitative binding data from duplicate assay samples was averaged (mean) and expressed as signal:background. Assay data shown is representative of at least 2 independent experiments. The assay data was correlated with the peptide sequences.
(§1) The WPAR (SEQ ID NO: 18) motif identified from Example 1 was analysed in the context of the 06-34-03 peptide, in order to identify alternatives or improvements to the WPAR (SEQ ID NO: 18) motif. A library was constructed where positions 1, 6, 7, 8, 9 &10 of 06-34-03 were fixed and positions 2, 3, 4 & 5 were randomised (see ‘Randomisation of peptide domains—Library construction’ in Methods above). Selections against human plasma Kallikrein were performed at a variety of stringencies (see Phage selections' in Methods above). All output sequences were identified and analysed for target binding (see ‘Randomisation of peptide domains—Assay of binding of individual clones’ in Methods above). Table 17 lists each unique sequence, its relative abundance in the selection output (frequency), and a rank number according to target binding strength.
Selections against human plasma Kallikrein were performed with this library in order to study the non-WPAR (SEQ ID NO: 18) determinants of Kallikrein binding, and to isolate the optimal WPAR (SEQ ID NO: 18)-containing peptide sequence. Over 150 selection output sequences were isolated and screened for binding to human plasma Kallikrein (as described in Methods above). The sequences were ranked in order of Kallikrein binding and the top 50 sequences were aligned in Table 19. […]

Biotinylated hPK = target: T1, Biotinylated hPK (Homo sapiens, UniProt P03952); test: Phage selections, abundance of sequences in selection outputs; assay type: binding; details: randomised WPAR motif at positions 2, 3, 4 & 5 within the 06-34-03 sequence
T1 construct: IHPKA, from human plasma; purchased Innovative Research, Novi, MI, USA IHPKA; host or cells: human plasma
Description: Glycerol stocks of phage libraries were diluted to OD600=0.1 in 500 ml 2YT/chloramphenicol (30 μg/ml) cultures and phage were produced at 30° C. over night (15-16 hrs). Phage were purified and chemically modified as described in Heinis, et al., Nat Chem Biol 2009, 5 (7), 502-7 Biotinylated hPK (3 μg) (IHPKA, from human plasma, Innovative Research, Novi, MI, USA) was incubated with 50 μl pre-washed magnetic streptavidin beads (Dynal, M-280 from Invitrogen, Paisley, UK) for 10 minutes at RT. […] Blocked beads were then mixed with the blocked chemically modified phage and incubated for 30 minutes on a rotating wheel at RT. Beads were washed 8 times with washing buffer containing 0.1% Tween 20 and twice with washing buffer before incubation with 100 μl of 50 mM glycine, pH 2.2 for 5 minutes. Eluted phage were transferred to 50 μl of 1 M Tris-Cl, pH 8 for neutralization, incubated with 30 ml TG1 cells at OD600=0.4 for 90 minutes at 37° C. and the cells were plated on large 2YT/chloramphenicol plates. One or two additional rounds of panning were performed using the same procedures. In the second round of selection, neutravidin-coated magnetic beads were used to prevent the enrichment of streptavidin-specific peptides. The neutravidin beads were prepared by reacting 0.8 mg neutravidin (Pierce, Rockford, IL, USA) with 0.5 ml tosyl-activated magnetic beads (Dynal, M-280 from Invitrogen, Paisley, UK) according to the supplier's instructions.
as §1

biotinylated human plasma Kallikrein, sequence (P03952 20-638): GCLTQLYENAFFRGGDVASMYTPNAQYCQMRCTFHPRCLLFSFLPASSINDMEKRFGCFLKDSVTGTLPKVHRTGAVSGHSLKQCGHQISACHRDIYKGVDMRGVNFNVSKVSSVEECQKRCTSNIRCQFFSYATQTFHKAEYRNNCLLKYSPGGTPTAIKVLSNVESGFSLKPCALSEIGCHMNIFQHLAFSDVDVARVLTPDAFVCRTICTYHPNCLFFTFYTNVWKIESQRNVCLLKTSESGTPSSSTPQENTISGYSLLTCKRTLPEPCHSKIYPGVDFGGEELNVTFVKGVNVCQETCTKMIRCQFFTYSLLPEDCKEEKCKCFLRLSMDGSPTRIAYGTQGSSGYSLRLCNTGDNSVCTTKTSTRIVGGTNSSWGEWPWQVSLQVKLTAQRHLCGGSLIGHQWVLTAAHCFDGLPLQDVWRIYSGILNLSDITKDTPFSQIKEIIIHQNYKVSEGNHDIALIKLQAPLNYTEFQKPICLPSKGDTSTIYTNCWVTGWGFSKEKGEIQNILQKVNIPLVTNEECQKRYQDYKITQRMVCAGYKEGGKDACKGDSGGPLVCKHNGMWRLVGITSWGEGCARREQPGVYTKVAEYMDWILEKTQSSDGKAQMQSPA
T1 sequence (P03952 20-638): as above

| Substance | Rank (sequences ranked according to Kallikrein binding) [1] | Frequency (relative abundance in the total selection outputs) (Biotinylated hPK) |
| --- | --- | --- |
| SEQ ID NO: 122 (CLWPARCTHQDLC; Synthetic sequence Kallikrein binder containing a WPAR motif) | 9 |  |
| SEQ ID NO: 155 (CSWPARCVHQDMC; Synthetic sequence Kallikrein binder containing a WPAR motif) | 42 |  |
| SEQ ID NO: 123 (CTWPARCTHTDLC; Synthetic sequence Kallikrein binder containing a WPAR motif) | 10 |  |
| SEQ ID NO: 119 (CSWPARCTHDDLC; Synthetic sequence Kallikrein binder containing a WPAR motif) | 6 |  |
| SEQ ID NO: 129 (CMWPARCMHQDLC; Synthetic sequence Kallikrein binder containing a WPAR motif) | 16 |  |
| SEQ ID NO: 134 (CRWPARCTHQDLC; Synthetic sequence Kallikrein binder containing a WPAR motif) | 21 |  |
| SEQ ID NO: 124 (CHWPARCTHQELC; Synthetic sequence Kallikrein binder containing a WPAR motif) | 11 |  |
| SEQ ID NO: 121 (CQWPARCLHTDLC; Synthetic sequence Kallikrein binder containing a WPAR motif) | 8 |  |
| SEQ ID NO: 138 (CVWPARCTHQDLC; Synthetic sequence Kallikrein binder containing a WPAR motif) | 25 |  |
| SEQ ID NO: 147 (CSWPARCIHQDLC; Synthetic sequence Kallikrein binder containing a WPAR motif) | 34 |  |
| SEQ ID NO: 116 (CHWPARCTHQDLC; Synthetic sequence Kallikrein binder containing a WPAR motif) | 3 |  |
| SEQ ID NO: 128 (CAWPARCTHTDFC; Synthetic sequence Kallikrein binder containing a WPAR motif) | 15 |  |
| SEQ ID NO: 135 (CQWPARCMHQELC; Synthetic sequence Kallikrein binder containing a WPAR motif) | 22 |  |
| SEQ ID NO: 139 (CTWPARCTHADLC; Synthetic sequence Kallikrein binder containing a WPAR motif) | 26 |  |
| SEQ ID NO: 160 (CTWPARCTHQAFC; Synthetic sequence Kallikrein binder containing a WPAR motif) | 47 |  |
| SEQ ID NO: 141 (CPWPARCTHTDLC; Synthetic sequence Kallikrein binder containing a WPAR motif) | 28 |  |
| SEQ ID NO: 161 (CSWPARCTHSDLC; Synthetic sequence Kallikrein binder containing a WPAR motif) | 48 |  |
| SEQ ID NO: 144 (CSWPARCTHTELC; Synthetic sequence Kallikrein binder containing a WPAR motif) | 31 |  |
| SEQ ID NO: 115 (CNWPARCTHQDLC; Synthetic sequence Kallikrein binder containing a WPAR motif) | 1 |  |

| Substance | Rank (sequences ranked according to Kallikrein binding) [1] | Frequency (relative abundance in the total selection outputs) (Biotinylated hPK) |
| --- | --- | --- |
| SEQ ID NO: 156 (CEWPARCLHTDLC; Synthetic sequence Kallikrein binder containing a WPAR motif) | 43 |  |
| SEQ ID NO: 148 (CTWPARCTHTDMC; Synthetic sequence Kallikrein binder containing a WPAR motif) | 35 |  |
| SEQ ID NO: 208 (CSWPARCTHQDLC; Synthetic sequence 06-34-03) | 2 |  |
| SEQ ID NO: 132 (CQWPARCTHSDLC; Synthetic sequence Kallikrein binder containing a WPAR motif) | 19 |  |
| SEQ ID NO: 136 (CTWPARCLHQDLC; Synthetic sequence Kallikrein binder containing a WPAR motif) | 23 |  |
| SEQ ID NO: 142 (CAWPARCTHYDLC; Synthetic sequence Kallikrein binder containing a WPAR motif) | 29 |  |
| SEQ ID NO: 131 (CQWPARCMHQDMC; Synthetic sequence Kallikrein binder containing a WPAR motif) | 18 |  |
| SEQ ID NO: 149 (CAWPARCTHTHLC; Synthetic sequence Kallikrein binder containing a WPAR motif) | 36 |  |
| SEQ ID NO: 137 (CSWPARCTHSHLC; Synthetic sequence Kallikrein binder containing a WPAR motif) | 24 |  |
| SEQ ID NO: 150 (CAWPARCLHADMC; Synthetic sequence Kallikrein binder containing a WPAR motif) | 37 |  |
| SEQ ID NO: 126 (CSWPARCLHTDLC; Synthetic sequence Kallikrein binder containing a WPAR motif) | 13 |  |
| SEQ ID NO: 163 (CPWPARCLHTDLC; Synthetic sequence Kallikrein binder containing a WPAR motif) | 50 |  |
| SEQ ID NO: 130 (CAWPARCTHADLC; Synthetic sequence Kallikrein binder containing a WPAR motif) | 17 |  |
| SEQ ID NO: 117 (CPWPARCTHQDLC; Synthetic sequence Kallikrein binder containing a WPAR motif) | 4 |  |
| SEQ ID NO: 152 (CDWPARCMHQEFC; Synthetic sequence Kallikrein binder containing a WPAR motif) | 39 |  |
| SEQ ID NO: 151 (CAWPARCLHQDWC; Synthetic sequence Kallikrein binder containing a WPAR motif) | 38 |  |
| SEQ ID NO: 95 (CSFPWRCTHQDLC; Synthetic sequence Kallikrein binder identified from selections using a randomised WPAR motif at positions 2, 3, 4 & 5 within the 06-34-03 sequence of PCT/EP2012/069898 (SEQ ID NO 58)) |  | 1 |
| SEQ ID NO: 102 (CSLPIRCTHQDLC; Synthetic sequence Kallikrein binder identified from selections using a randomised WPAR motif at positions 2, 3, 4 & 5 within the 06-34-03 sequence of PCT/EP2012/069898 (SEQ ID NO 58)) |  | 1 |
